The labels stand for the following.
B1: CE115HA000 H chain altered form N54K (antibody, human IgG1, kappa, L234A L235A, N297A, name in Kabat numbering)
heavy: QVQLVESGGGVVQPGRSLRLSCAASGFTFSNAWMHWVRQAPGKGLEWVAQIKAKSNKYATYYAESVKGRFTISRDDSKNSLYLQMNSLKTEDTAVYYCRYVHYGAYYGVDAWGQGTTVTVSSASTKGPSVFPLAPSSKSTSGGTAALGCLVKDYFPEPVTVSWNSGALTSGVHTFPAVLQSSGLYSLSSVVTVPSSSLGTQTYICNVNHKPSNTKVDKKVEPKSCDKTHTCPPCPAPEAAGGPSVFLFPPKPKDTLMISRTPEVTCVVVDVSHEDPEVKFNWYVDGVEVHNAKTKPREEQYASTYRVVSVLTVLHQDWLNGKEYKCKVSNKALPAPIEKTISKAKGQPREPQVYTLPPSRCELTKNQVSLSCAVKGFYPSDIAVEWESNGQPENNYKTTPPVLDSDGSFFLVSKLTVDKSRWQQGNVFSCSVMHEALHNHYTQKSLSLSPDYKDDDDK
chain: EPKSSDKTHTCPPCPAPELLGGPSVFLFPPKPKDTLMISRTPEVTCVVVDVSHEDPEVKFNWYVDGVEVHNAKTKPREEQYNSTYRVVSVLTVLHQDWLNGKEYKCKVSNKALPAPIEKTISKAKGQPREPQVCTLPPSRDELTKNQVSLWCLVKGFYPSDIAVEWESNGQPENNYKTTPPVLDSDGSFFLYSKLTVDKSRWQQGNVFSCSVMHEALHNRYTQKSLSLSP
light: DIVMTQSPLSLPVTPGEPASISCRSSQSLVHSNRNTYLHWYQQKPGQAPRLLIYKVSNRFSGVPDRFSGSGSGTDFTLKISRVEAEDVGVYYCGQGTQVPYTFGQGTKLEIKRTVAAPSVFIFPPSDEQLKSGTASVVCLLNNFYPREAKVQWKVDNALQSGNSQESVTEQDSKDSTYSLSSTLTLSKADYEKHKVYACEVTHQGLSSPVTKSFNRGEC
notes: one-arm antibody
B2: CE115HA000 H chain altered form T28D (antibody, human IgG1, kappa, L234A L235A, N297A, name in Kabat numbering)
heavy: B1 heavy with T28D, K57N
chain: B1 chain
light: B1 light
notes: one-arm antibody
B3: CE115HA000 H chain altered form N54S (antibody, human IgG1, kappa, L234A L235A, N297A, name in Kabat numbering)
heavy: B1 heavy with K57S
chain: B1 chain
light: B1 light
notes: one-arm antibody
B4: CE115HA000 H chain altered form R19T (antibody, human IgG1, kappa, L234A L235A, N297A, name in Kabat numbering)
heavy: B1 heavy with R19T, K57N
chain: B1 chain
light: B1 light
notes: one-arm antibody
B5: CE115HA000 H chain altered form S52cV (antibody, human IgG1, kappa, L234A L235A, N297A, name in Kabat numbering)
heavy: B1 heavy with S55V, K57N
chain: B1 chain
light: B1 light
notes: one-arm antibody
B6: CE115HA000 H chain altered form S30D (antibody, human IgG1, kappa, L234A L235A, N297A, name in Kabat numbering)
heavy: B1 heavy with S30D, K57N
chain: B1 chain
light: B1 light
notes: one-arm antibody
B7: CE115HA000 H chain altered form Q50I (antibody, human IgG1, kappa, L234A L235A, N297A, name in Kabat numbering)
heavy: B1 heavy with Q50I, K57N
chain: B1 chain
light: B1 light
notes: one-arm antibody
B8: CE115HA000 H chain altered form T28S (antibody, human IgG1, kappa, L234A L235A, N297A, name in Kabat numbering)
heavy: B1 heavy with T28S, K57N
chain: B1 chain
light: B1 light
notes: one-arm antibody
B9: CE115HA000 H chain altered form S52cK (antibody, human IgG1, kappa, L234A L235A, N297A, name in Kabat numbering)
heavy: B1 heavy with S55K, K57N
chain: B1 chain
light: B1 light
notes: one-arm antibody
B10: CE115HA000 H chain altered form S52cG (antibody, human IgG1, kappa, L234A L235A, N297A, name in Kabat numbering)
heavy: B1 heavy with S55G, K57N
chain: B1 chain
light: B1 light
notes: one-arm antibody
B11: CE115HA000 H chain altered form N54Y (antibody, human IgG1, kappa, L234A L235A, N297A, name in Kabat numbering)
heavy: B1 heavy with K57Y
chain: B1 chain
light: B1 light
notes: one-arm antibody
B12: CE115HA000 H chain altered form Q50K (antibody, human IgG1, kappa, L234A L235A, N297A, name in Kabat numbering)
heavy: B1 heavy with Q50K, K57N
chain: B1 chain
light: B1 light
notes: one-arm antibody
B13: CE115HA000 H chain altered form Q50A (antibody, human IgG1, kappa, L234A L235A, N297A, name in Kabat numbering)
heavy: B1 heavy with Q50A, K57N
chain: B1 chain
light: B1 light
notes: one-arm antibody
B14: CE115HA000 H chain altered form N54L (antibody, human IgG1, kappa, L234A L235A, N297A, name in Kabat numbering)
heavy: B1 heavy with K57L
chain: B1 chain
light: B1 light
notes: one-arm antibody
B15: CE115HA000 H chain altered form S52cY (antibody, human IgG1, kappa, L234A L235A, N297A, name in Kabat numbering)
heavy: B1 heavy with S55Y, K57N
chain: B1 chain
light: B1 light
notes: one-arm antibody
B16: CE115HA000 H chain altered form Q50E (antibody, human IgG1, kappa, L234A L235A, N297A, name in Kabat numbering)
heavy: B1 heavy with Q50E, K57N
chain: B1 chain
light: B1 light
notes: one-arm antibody
B17: CE115HA000 H chain altered form S52cD (antibody, human IgG1, kappa, L234A L235A, N297A, name in Kabat numbering)
heavy: B1 heavy with S55D, K57N
chain: B1 chain
light: B1 light
notes: one-arm antibody
B18: CE115HA000 H chain altered form R16E (antibody, human IgG1, kappa, L234A L235A, N297A, name in Kabat numbering)
heavy: B1 heavy with R16E, K57N
chain: B1 chain
light: B1 light
notes: one-arm antibody
B19: CE115HA000 H chain altered form T57I (antibody, human IgG1, kappa, L234A L235A, N297A, name in Kabat numbering)
heavy: B1 heavy with K57N, T60I
chain: B1 chain
light: B1 light
notes: one-arm antibody
B20: CE115HA000 H chain altered form S30G (antibody, human IgG1, kappa, L234A L235A, N297A, name in Kabat numbering)
heavy: B1 heavy with S30G, K57N
chain: B1 chain
light: B1 light
notes: one-arm antibody
B21: CE115HA000 H chain altered form R16Q (antibody, human IgG1, kappa, L234A L235A, N297A, name in Kabat numbering)
heavy: B1 heavy with R16Q, K57N
chain: B1 chain
light: B1 light
notes: one-arm antibody
B22: CE115HA000 H chain altered form Q50D (antibody, human IgG1, kappa, L234A L235A, N297A, name in Kabat numbering)
heavy: B1 heavy with Q50D, K57N
chain: B1 chain
light: B1 light
notes: one-arm antibody
B23: CE115HA000 H chain altered form S52cA (antibody, human IgG1, kappa, L234A L235A, N297A, name in Kabat numbering)
heavy: B1 heavy with S55A, K57N
chain: B1 chain
light: B1 light
notes: one-arm antibody
B24: CE115HA000 H chain altered form S52cL (antibody, human IgG1, kappa, L234A L235A, N297A, name in Kabat numbering)
heavy: B1 heavy with S55L, K57N
chain: B1 chain
light: B1 light
notes: one-arm antibody
B25: CE115HA000 H chain altered form T57A (antibody, human IgG1, kappa, L234A L235A, N297A, name in Kabat numbering)
heavy: B1 heavy with K57N, T60A
chain: B1 chain
light: B1 light
notes: one-arm antibody
B26: CE115HA000 H chain altered form S52cQ (antibody, human IgG1, kappa, L234A L235A, N297A, name in Kabat numbering)
heavy: B1 heavy with S55Q, K57N
chain: B1 chain
light: B1 light
notes: one-arm antibody
B27: CE115HA000 H chain altered form S52cF (antibody, human IgG1, kappa, L234A L235A, N297A, name in Kabat numbering)
heavy: B1 heavy with S55F, K57N
chain: B1 chain
light: B1 light
notes: one-arm antibody
B28: CE115HA000 H chain altered form Q50S (antibody, human IgG1, kappa, L234A L235A, N297A, name in Kabat numbering)
heavy: B1 heavy with Q50S, K57N
chain: B1 chain
light: B1 light
notes: one-arm antibody
B29: CE115HA000 H chain altered form Q50L (antibody, human IgG1, kappa, L234A L235A, N297A, name in Kabat numbering)
heavy: B1 heavy with Q50L, K57N
chain: B1 chain
light: B1 light
notes: one-arm antibody
B30: CE115HA000 H chain altered form T57K (antibody, human IgG1, kappa, L234A L235A, N297A, name in Kabat numbering)
heavy: B1 heavy with K57N, T60K
chain: B1 chain
light: B1 light
notes: one-arm antibody
B31: CE115HA000 H chain altered form N54Q (antibody, human IgG1, kappa, L234A L235A, N297A, name in Kabat numbering)
heavy: B1 heavy with K57Q
chain: B1 chain
light: B1 light
notes: one-arm antibody
B32: CE115HA000 H chain altered form Q50Y (antibody, human IgG1, kappa, L234A L235A, N297A, name in Kabat numbering)
heavy: B1 heavy with Q50Y, K57N
chain: B1 chain
light: B1 light
notes: one-arm antibody

Numbering of substitutions follows the chain as printed.

T1 sequence (P07766 23-126): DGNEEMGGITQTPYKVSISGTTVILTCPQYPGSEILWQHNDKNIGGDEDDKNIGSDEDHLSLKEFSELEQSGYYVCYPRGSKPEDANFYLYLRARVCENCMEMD

This assay has as its target T1, CD3 epsilon homodimer protein (UniProt P07766 23-126).
T1 construct: also called CD3 (CD3 epsilon)
The assay can be described thus: SPR Biacore T200, CD3 epsilon homodimer on chip, antibody as analyte.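 Further: homodimer amine-coupled to a CM4 sensor chip, run at 25 °C in HBS-EP+ buffer, with kinetic parameters derived in Biacore T200 Evaluation Software.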
B1: the “KD ratio (KD of CE115HA000 / KD of altered form)” value is 0.82.

Consider B2, for which the “KD ratio (KD of CE115HA000 / KD of altered form)” value came to 0.93. The figure for B3 is 0.57; for B4 it is 0.81. The figure for B5 is 0.82.

On to B6, for which the “KD ratio (KD of CE115HA000 / KD of altered form)” value is 0.79. The figure for B7 is 1.21; for B8 it is 0.79. The figure for B9 is 0.88; for B10 it is 0.81; for B11 it is 1.03. For B12 the value was 0.71; for B13, 22.6. Regarding B14, the “KD ratio (KD of CE115HA000 / KD of altered form)” value is 0.91. The figure for B15 is 0.87; for B16 it is 16700.

In the case of B17, the “KD ratio (KD of CE115HA000 / KD of altered form)” value came out at 0.55. For B18 the value was 0.74; for B19, 0.81; for B20, 0.93. The figure for B21 is 0.87; for B22 it is 75.4. For B23 the value was 0.67; for B24, 0.94.

For B25, the “KD ratio (KD of CE115HA000 / KD of altered form)” value came to 0.87. The figure for B26 is 0.97. The figure for B27 is 0.93. As to B28, the “KD ratio (KD of CE115HA000 / KD of altered form)” value turned out to be 47.4. For B29 the value was 1.41; for B30, 1.22; for B31, 0.8. For B32 the value was 49.1.

For the origin of these results see US20240270846A1 (published 2024).
